Consider eight molecules from article PMC9865026 (Pathogens, 2022).

Sequences and labels used below:
B1: FI6 human IgG1 with a mouse IgG1 hinge (antibody, V domains shown)
VH: QVQLVESGGGVVQPGRSLRLSCAASGFTFSTYAMHWVRQAPGKGLEWVAVISYDANYKYYADSVKGRFTISRDNSKNTLYLQMNSLRAEDTAVYYCAKDSQLRSLLYFEWLSQGYFDYWGQGTLVTVSS
VL: not shown
notes: also called VR-analogous human IgG1 with a mouse IgG1 hinge (FI6); copies: 2 + 2
B2: FI6 human IgG4 (antibody, V domains shown)
VH: B1 VH
VL: not shown
notes: also called VR-analogous human IgG4 (FI6); source: HEK-293, transfected (pTT5), purified from cell culture supernatant (MabSelect); copies: 2 + 2
B3: FI6 mouse IgG2a (antibody, V domains shown)
VH: B1 VH
VL: not shown
notes: also called VR-analogous mouse IgG2a (FI6); source: HEK-293, transfected (pTT5), purified from cell culture supernatant (Protein G); copies: 2 + 2
B4: FI6 mouse IgG1 (antibody, V domains shown)
VH: B1 VH
VL: not shown
notes: also called VR-analogous mouse IgG1 (FI6); source: HEK-293, transfected (pTT5), purified from cell culture supernatant (Protein G); copies: 2 + 2
B5: CR6261 human IgG1 possessing a mouse IgG1 hinge (antibody, V domains shown)
VH: EVQLVESGAEVKKPGSSVKVSCKASGGPFRSYAISWVRQAPGQGPEWMGGIIPIFGTTKYAPKFQGRVTITADDFAGTVYMELSSLRSEDTAMYYCAKHMGYQVRETMDVWGKGTTVTVSS
VL: QSVLTQPPSVSAAPGQKVTISCSGSSSNIGNDYVSWYQQLPGTAPKLLIYDNNKRPSGIPDRFSGSKSGTSATLGITGLQTGDEANYYCATWDRRPTAYVVFGGGTKLTVL
notes: also called human IgG1 with a mouse IgG1 hinge; copies: 2 + 2
B6: CR6261 human IgG4 (antibody, V domains shown)
VH: B5 VH
VL: B5 VL
notes: also called CR6261 IgG4; source: HEK-293, transfected (pTT5), purified from cell culture supernatant (MabSelect); copies: 2 + 2
B7: F045-092 human IgG4 (antibody, V domains shown)
VH: EVQLVESGAEVKKPGSSVKVSCRASGTFYKYAINWVRQAPGQGLEWMGGIIPFFGTTNYAQKFQGRLTITADGSTNTAYMQLDSLRSEDTAVYYCAGPSITESHYCLDCAAKDYYYGLDVWGQGTTVTVSS
VL: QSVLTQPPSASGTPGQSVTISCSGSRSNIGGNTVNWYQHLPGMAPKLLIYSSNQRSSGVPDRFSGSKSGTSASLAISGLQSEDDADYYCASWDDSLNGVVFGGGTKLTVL
notes: also called F045-092 IgG4; source: HEK-293, transfected (pTT5), purified from cell culture supernatant (MabSelect); copies: 2 + 2
B8: F045-092 human IgG1 with a mouse IgG1 hinge (antibody, V domains shown)
VH: B7 VH
VL: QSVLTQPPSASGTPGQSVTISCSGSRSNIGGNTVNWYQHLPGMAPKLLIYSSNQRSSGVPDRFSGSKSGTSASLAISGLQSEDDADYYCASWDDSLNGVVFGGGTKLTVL
notes: also called human IgG1 with a mouse hinge; copies: 2 + 2

The first test has as its target A/California/07/2009 (pH1N1) recombinant hemagglutinin (HA) (Influenza A virus A/California/07/2009 …, UniProt C3W5X2, strain). Put plainly: ELISA. To be noted: both partners purified.
On to B1, for which the binding result is given as “binds”.
Regarding B2, the binding result was “binds”.
On the same count and under the same terms, in the case of B3 it was “binds”.
On the same count and under the same terms, in the case of B4 it was “binds”.
Turning to B5, the binding result is reported as “binds”.
With B6, the binding result is on record as “binds”.

The target of a further test is A/New Caledonia/20/1999 (NC H1N1) recombinant hemagglutinin (HA) (Influenza A virus A/New …, UniProt Q6WG00, strain). The test is described as follows: ELISA. To be noted: both partners purified.
As for B1, the binding result is recorded as “binds”.
For the molecule B2, the binding result is on record as “binds”.
Same read-out and setting: in the case of B3 it was “binds”; in that of B4, “binds”; in that of B5, “binds”.
For B6, the binding result is on record as “binds”.

The target in another test is A/Aichi/2/68 (H3N2A) recombinant hemagglutinin (HA) (Influenza A virus A/Aichi/2/1968 …, UniProt T2HNI1). Put plainly: ELISA. To be noted: both partners purified. For orientation: In an ELISA, binding on a coated surface is turned into a signal by an enzyme label.
B1: the binding result is given as “binds”.
Regarding B2, the binding result is “binds”.
For B3, the binding result is “binds”.
For B4, the binding result is “binds”.
As for B7, the binding result is reported as “binds”.
Regarding B8, the binding result is recorded as “binds”.

In a further test the target is A/Perth/16/2009 (H3N2P) recombinant hemagglutinin (HA) (Influenza A virus A/Perth/16/2009 (H3N2), UniProt C6KNH7, strain). Put plainly: ELISA. Particulars: both partners purified.
Consider B1, for which the binding result is given as “binds”.
In the case of B2, the binding result is “binds”.
Regarding B3, the binding result was “binds”.
Turning to B4, the binding result was “binds”.
Still for that read-out and setting: in the case of B7 it was “binds”; in that of B8, “binds”.
